Data as given in paper PMC7145662, “Crystal structure of the EcoKMcrA N-terminal domain (NEco): recognition of modified cytosine bases without flipping”.
Numbering of substitutions follows the chain as printed.

Legend:
[1] = biological target: T1, NEco (EcoKMcrA N-terminal domain) (Escherichia coli K) (UniProt P24200); test: competition; conditions: 5mC in CpG, both strands; EMSA: 10 nM 33P/32P 30 bp duplex, 5-2000 nM NEco; competition: 10 nM labeled C5mCGG, 10 nM NEco, 3-3000 nM unlabeled competitor; buffer, pH and temperature not …
T1 sequence: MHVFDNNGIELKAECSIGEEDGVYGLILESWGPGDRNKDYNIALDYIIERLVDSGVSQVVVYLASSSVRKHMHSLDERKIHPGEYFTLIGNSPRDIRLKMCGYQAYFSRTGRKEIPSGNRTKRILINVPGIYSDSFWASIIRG

NEco W31F = biological target: T2, NEco W31F (Escherichia coli K, UniProt P24200 1-143, W31F); test: EMSA; EMSA: 10 nM 33P/32P 30 bp duplex, 5-2000 nM NEco; competition: 10 nM labeled C5mCGG, 10 nM NEco, 3-3000 nM unlabeled competitor; buffer, pH and temperature not; conditions: protein: recombinant
T2 sequence: T1 sequence with W31F

NEco W31S = biological target: T3, NEco W31S (Escherichia coli K, UniProt P24200 1-143, W31S); test: as above; conditions: protein: recombinant
T3 sequence: T1 sequence with W31S

NEco W31Y = biological target: T4, NEco W31Y (Escherichia coli K, UniProt P24200 1-143, W31Y); test: as above; conditions: protein: recombinant
T4 sequence: T1 sequence with W31Y

NEco W31A [2] = biological target: T5, NEco W31A (Escherichia coli K, UniProt P24200 1-143, W31A); test: as above; conditions: protein: recombinant
T5 sequence: T1 sequence with W31A

NEco S30A = biological target: T6, NEco S30A (Escherichia coli K, UniProt P24200 1-143, S30A); test: as above; conditions: protein: recombinant
T6 sequence: T1 sequence with S30A

NEco S30L = biological target: T7, NEco S30L (Escherichia coli K, UniProt P24200 1-143, S30L); test: as above; conditions: protein: recombinant
T7 sequence: T1 sequence with S30L

NEco S30V = biological target: T8, NEco S30V (Escherichia coli K, UniProt P24200 1-143, S30V); test: as above; conditions: protein: recombinant
T8 sequence: T1 sequence with S30V

NEco W31I = biological target: T9, NEco W31I (Escherichia coli K, UniProt P24200 1-143, W31I); test: as above; conditions: protein: recombinant
T9 sequence: T1 sequence with W31I

NEco N119A = biological target: T10, NEco N119A (Escherichia coli K, UniProt P24200 1-143, N119A); test: as above; conditions: protein: recombinant
T10 sequence: T1 sequence with N119A

NEco W31V = biological target: T11, NEco W31V (Escherichia coli K, UniProt P24200 1-143, W31V); test: as above; conditions: protein: recombinant
T11 sequence: T1 sequence with W31V

NEco W31L = biological target: T12, NEco W31L (Escherichia coli K, UniProt P24200 1-143, W31L); test: as above; conditions: protein: recombinant
T12 sequence: T1 sequence with W31L

[3] = biological target: T13, NEco (EcoKMcrA N-terminal domain) (Escherichia coli K, UniProt P24200 1-143); test: competition; EMSA: 10 nM 33P/32P 30 bp duplex, 5-2000 nM NEco; competition: 10 nM labeled C5mCGG, 10 nM NEco, 3-3000 nM unlabeled competitor; buffer, pH and temperature not; conditions: protein: recombinant
T13 sequence: T1 sequence

[4] = biological target: T13, NEco (EcoKMcrA N-terminal domain); test: as above; conditions: protein: recombinant; remark: listed apart in the source
NEco W31A [5] = biological target: T5, NEco W31A; test: EMSA; discrete complexes, unlike wt; EMSA: 10 nM 33P/32P 30 bp duplex, 5-2000 nM NEco; competition: 10 nM labeled C5mCGG, 10 nM NEco, 3-3000 nM unlabeled competitor; buffer, pH and temperature not; conditions: protein: recombinant
NEco W31H = biological target: T14, NEco W31H (Escherichia coli K, UniProt P24200 1-143, W31H); test: competition; EMSA: 10 nM 33P/32P 30 bp duplex, 5-2000 nM NEco; competition: 10 nM labeled C5mCGG, 10 nM NEco, 3-3000 nM unlabeled competitor; buffer, pH and temperature not; conditions: protein: recombinant
T14 sequence: T1 sequence with W31H

With “AGACCCACGCTCAGCGCTTCCAGATTTATC (double strand) [30 bp G5mCGC]” the binding signal (fold lower affinity than G5mCGG/C5mCGC) [1] was over 25.

“AGACCCACGCTCAGCGGTTCCAGATTTATC (double strand) [30 bp G5mCGG/C5mCGC]” was tested, and the binding signal (fold lower affinity than C5mCGG) [1] was 100.

B1: 30 bp C5mCGG fully methylated (dsDNA)
DNA 1: AGACCCACGCTCACCGGTTCCAGATTTATC
DNA 2: GATAAATCTGGAACCGGTGAGCGTGGGTCT
modifications: 5mC at inner C of CCGG, both strands
B1: binds (NEco W31F); binds (NEco W31S); binds (NEco W31Y). For the same molecule, the binding result (NEco W31A [2]) was “binds”, the binding result (NEco S30A) was “binds” and the binding signal (NEco S30L) was over 50 fold decreased vs wt NEco. The binding signal (NEco S30V) was over 50 fold decreased vs wt NEco, the binding signal (NEco W31I) was over 50 fold decreased vs wt NEco and the binding signal (NEco N119A) was about 40 fold impaired vs wt NEco. For the same molecule, the binding signal (NEco W31V) was over 50 fold decreased vs wt NEco and the binding signal (NEco W31L) was over 50 fold decreased vs wt NEco.

B2: 30 bp CTGG/C5mCAG (T:A pair) (dsDNA)
DNA 1: B1 DNA 1 with C15T
DNA 2: B1 DNA 2 with G16A
modifications: 5mC in one strand
For B2, the binding signal [3] was > 2000 fold lower affinity than C5mCGG.

B3: 30 bp CCGG hemi-methylated (dsDNA)
DNA 1: B1 DNA 1
DNA 2: B1 DNA 2
modifications: 5mC at inner C of CCGG, one strand
With B3 the binding signal [4] was ~230 fold lower affinity than fully methylated, the binding result (NEco W31A [5]) was “binds” and the binding signal (NEco W31H) was ~35 fold lower affinity than fully methylated (same variant).

B4: 30 bp CCGG non-methylated (dsDNA)
DNA 1: B1 DNA 1
DNA 2: B1 DNA 2
B4 was tested, and the binding signal [4] was ~10 fold lower affinity than hemi-methylated.

B5: 30 bp CTGG/C5mCGG (T:G mismatch) (dsDNA)
DNA 1: B1 DNA 1 with C15T
DNA 2: B1 DNA 2
modifications: 5mC in one strand
With B5 the binding signal ([3]; T:G mismatch) was ~500 fold lower affinity than C5mCGG.

B6: 30 bp C5hmCGG fully hydroxymethylated (dsDNA)
DNA 1: B1 DNA 1
DNA 2: B1 DNA 2
modifications: 5hmC at inner C of CCGG, both strands
With B6 the binding signal [4] was ~40 fold lower affinity than fully methylated.
